Patent publication US20060036083

Biological target: human neutrophil peptide (HNP)-1
Sequence (chain, as listed by the source): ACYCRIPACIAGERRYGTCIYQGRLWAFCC

B1: recombinant ADP-ribosyltransferase (ART)-1 with a FLAG tag, cloned from a rabbit muscle cDNA library (protein)
chain: QSHLVTRRDLFSQETPLDMAPASFDDQYVGCAAAMTAALPHLNLTEFQVNKVYADGWALASSQWRERSAWGPEWGLSTTRLPPPPAGFRDEHGVALLAYTANSPLHKEFNAAVRQAGRSRAHYLQHFSFKTLHFLLTEALQLLGRDQRMPRCRQVFRGVHGLRFRPAGPGTTVRLGGFASASLKNVAAQQFGEDTFFGIWTCLGVPIQGYSFFPGEEEVLIPPFETFQVINASRPAQGPARIYLKALGKRSSYNCEYIKEMQCKSRPCHLDNS
ADP-ribosylation of HNP-1 by ART-1 with NAD+ (RP-HPLC, MALDI mass spectrometry): peptides with a mass of 3,983 daltons (retention time 46.5 minutes), consistent with mono-ADP-ribosyl-HNP (calculated mass equivalent to 3,983 daltons), were identified
